Common to all, as to assay: native gel or EMSA
On the technique in general: Mobility shift assays separate free from complexed probe on a gel.

Data set [1] addresses KaiA3-His6 (Synechocystis sp. PCC 6803).
In data set [2] the target is KaiB3 (recombinant, GST-tag removed) (Synechocystis sp. PCC 6803).
For data set [3], the target named is Strep-KaiC3 (Synechocystis sp. PCC 6803).
Data set [4] concerns the molecule itself.

Some results are limits rather than exact numbers.

The term stoichiometry N denotes a count of units in the complex or per binding partner.

Consider KaiA3-His6 (natural protein), for which, in data set [1], the stoichiometry N was above 2.
With “KaiB3 (recombinant, GST-tag removed) (natural protein)”, the stoichiometry N in data set [2] amounted to 4.
Take Strep-KaiC3 (natural protein): in data set [3], the stoichiometry N amounted to 6.

B1: Synechococcus KaiA (recombinant, GST-tag removed) (natural protein, Synechococcus elongatus PCC 7942, UniProt Q79PF6 1-284, looked up)
chain: MLSQIAICIWVESTAILQDCQRALSADRYQLQVCESGEMLLEYAQTHRDQIDCLILVAANPSFRAVVQQLCFEGVVVPAIVVGDRDSEDPDEPAKEQLYHSAELHLGIHQLEQLPYQVDAALAEFLRLAPVETMADHIMLMGANHDPELSSQQRDLAQRLQERLGYLGVYYKRDPDRFLRNLPAYESQKLHQAMQTSYREIVLSYFSPNSNLNQSIDNFVNMAFFADVPVTKVVEIHMELMDEFAKKLRVEGRSEDILLDYRLTLIDVIAHLCEMYRRSIPRET
Turning to B1, the “stoichiometry N” value in data set [4] turned out to be 2.

For the origin of these results see paper doi:10.1101/2021.07.20.453058 (bioRxiv, 2021).
